Data from doi:10.1101/2024.09.13.612963 (bioRxiv, 2024).

Molecular target: T1, TRAK1-mScarlet (wild type, truncated before the mitochondrial binding domain) (human, UniProt Q9UPV9 1-702)
T1 sequence (looked up): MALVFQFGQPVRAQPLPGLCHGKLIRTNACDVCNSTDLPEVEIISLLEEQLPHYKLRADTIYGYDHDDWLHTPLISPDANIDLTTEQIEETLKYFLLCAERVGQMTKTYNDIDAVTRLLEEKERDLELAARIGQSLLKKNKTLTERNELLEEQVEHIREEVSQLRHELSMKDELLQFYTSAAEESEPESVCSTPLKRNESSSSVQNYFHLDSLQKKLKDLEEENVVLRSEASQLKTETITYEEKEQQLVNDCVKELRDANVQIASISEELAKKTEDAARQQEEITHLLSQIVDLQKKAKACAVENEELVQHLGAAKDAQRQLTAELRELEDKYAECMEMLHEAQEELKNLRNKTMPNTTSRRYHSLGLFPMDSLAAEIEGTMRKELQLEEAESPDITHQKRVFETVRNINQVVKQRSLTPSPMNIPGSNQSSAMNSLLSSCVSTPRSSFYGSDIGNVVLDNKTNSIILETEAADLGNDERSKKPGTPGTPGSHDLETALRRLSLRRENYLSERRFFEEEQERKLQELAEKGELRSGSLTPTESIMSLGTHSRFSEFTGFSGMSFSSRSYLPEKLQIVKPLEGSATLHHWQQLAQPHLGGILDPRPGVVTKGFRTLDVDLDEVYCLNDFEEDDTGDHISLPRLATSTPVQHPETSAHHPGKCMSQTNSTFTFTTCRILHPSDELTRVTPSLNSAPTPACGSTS
Experiment: co-IP

- fold enrichment against TRAK2-driven synthetic cargo: ~20 fold
B1: kinesin-1 (KIF5B) (natural protein, human (endogenous in hTERT RPE-1), UniProt P33176 1-963, looked up)
chain: MADLAECNIKVMCRFRPLNESEVNRGDKYIAKFQGEDTVVIASKPYAFDRVFQSSTSQEQVYNDCAKKIVKDVLEGYNGTIFAYGQTSSGKTHTMEGKLHDPEGMGIIPRIVQDIFNYIYSMDENLEFHIKVSYFEIYLDKIRDLLDVSKTNLSVHEDKNRVPYVKGCTERFVCSPDEVMDTIDEGKSNRHVAVTNMNEHSSRSHSIFLINVKQENTQTEQKLSGKLYLVDLAGSEKVSKTGAEGAVLDEAKNINKSLSALGNVISALAEGSTYVPYRDSKMTRILQDSLGGNCRTTIVICCSPSSYNESETKSTLLFGQRAKTIKNTVCVNVELTAEQWKKKYEKEKEKNKILRNTIQWLENELNRWRNGETVPIDEQFDKEKANLEAFTVDKDITLTNDKPATAIGVIGNFTDAERRKCEEEIAKLYKQLDDKDEEINQQSQLVEKLKTQMLDQEELLASTRRDQDNMQAELNRLQAENDASKEEVKEVLQALEELAVNYDQKSQEVEDKTKEYELLSDELNQKSATLASIDAELQKLKEMTNHQKKRAAEMMASLLKDLAEIGIAVGNNDVKQPEGTGMIDEEFTVARLYISKMKSEVKTMVKRCKQLESTQTESNKKMEENEKELAACQLRISQHEAKIKSLTEYLQNVEQKKRQLEESVDALSEELVQLRAQEKVHEMEKEHLNKVQTANEVKQAVEQQIQSHRETHQKQISSLRDEVEAKAKLITDLQDQNQKMMLEQERLRVEHEKLKATDQEKSRKLHELTVMQDRREQARQDLKGLEETVAKELQTLHNLRKLFVQDLATRVKKSAEIDSDDTGGSAAQKQKISFLENNLEQLTKVHKQLVRDNADLRCELPKLEKRLRATAERVKALESALKEAKENASRDRKRYQQEVDRIKEAVRSKNMARRGHSAQIAKPIRPGQHPAASPTHPSAIRGGGAFVQNSQPVAVRGGGGKQV
